Results reported in patent US20170065702A1 (CANGENE, published 2017).

T1: MARV Angola GPe (Marburg virus, Angola strain, UniProt Q1PD50 19-637)
T1 sequence: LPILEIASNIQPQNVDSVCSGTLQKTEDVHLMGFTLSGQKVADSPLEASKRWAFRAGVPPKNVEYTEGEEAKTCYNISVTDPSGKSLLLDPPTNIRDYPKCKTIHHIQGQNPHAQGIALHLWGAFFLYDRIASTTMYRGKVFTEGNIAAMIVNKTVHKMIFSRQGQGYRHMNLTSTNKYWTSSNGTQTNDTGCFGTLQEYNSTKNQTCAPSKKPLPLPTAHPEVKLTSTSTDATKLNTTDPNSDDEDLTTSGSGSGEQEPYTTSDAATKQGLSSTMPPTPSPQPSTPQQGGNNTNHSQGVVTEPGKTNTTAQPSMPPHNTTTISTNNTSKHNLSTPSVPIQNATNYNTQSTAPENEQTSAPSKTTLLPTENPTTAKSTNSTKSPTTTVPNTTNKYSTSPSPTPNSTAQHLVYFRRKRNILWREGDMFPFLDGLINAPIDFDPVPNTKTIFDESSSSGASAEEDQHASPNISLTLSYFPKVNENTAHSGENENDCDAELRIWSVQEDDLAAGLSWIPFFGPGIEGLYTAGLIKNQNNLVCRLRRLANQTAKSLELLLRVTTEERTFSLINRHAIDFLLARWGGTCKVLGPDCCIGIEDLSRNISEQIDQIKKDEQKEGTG

T2: MARV Musoke GPe (Marburg virus, Musoke strain, UniProt P35253 19-637)
T2 sequence: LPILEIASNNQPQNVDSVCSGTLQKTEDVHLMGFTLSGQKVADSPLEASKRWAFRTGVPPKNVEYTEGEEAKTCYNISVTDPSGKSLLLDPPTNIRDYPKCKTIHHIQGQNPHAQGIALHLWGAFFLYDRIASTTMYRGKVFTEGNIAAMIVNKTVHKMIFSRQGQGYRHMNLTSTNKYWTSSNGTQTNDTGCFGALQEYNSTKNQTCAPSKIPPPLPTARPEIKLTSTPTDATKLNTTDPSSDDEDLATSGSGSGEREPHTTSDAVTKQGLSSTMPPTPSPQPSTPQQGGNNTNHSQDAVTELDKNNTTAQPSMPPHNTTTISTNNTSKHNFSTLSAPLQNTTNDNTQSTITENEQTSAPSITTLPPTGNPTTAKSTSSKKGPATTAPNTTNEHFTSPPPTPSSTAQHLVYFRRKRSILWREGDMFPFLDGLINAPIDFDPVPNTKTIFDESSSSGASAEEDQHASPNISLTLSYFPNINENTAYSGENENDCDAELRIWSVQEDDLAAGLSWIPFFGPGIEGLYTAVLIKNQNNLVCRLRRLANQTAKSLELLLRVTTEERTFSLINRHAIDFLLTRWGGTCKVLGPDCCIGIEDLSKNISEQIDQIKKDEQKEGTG

T3: MARV Ci67 GPe (Marburg virus, Ci67 strain, UniProt P35254 19-637)
T3 sequence: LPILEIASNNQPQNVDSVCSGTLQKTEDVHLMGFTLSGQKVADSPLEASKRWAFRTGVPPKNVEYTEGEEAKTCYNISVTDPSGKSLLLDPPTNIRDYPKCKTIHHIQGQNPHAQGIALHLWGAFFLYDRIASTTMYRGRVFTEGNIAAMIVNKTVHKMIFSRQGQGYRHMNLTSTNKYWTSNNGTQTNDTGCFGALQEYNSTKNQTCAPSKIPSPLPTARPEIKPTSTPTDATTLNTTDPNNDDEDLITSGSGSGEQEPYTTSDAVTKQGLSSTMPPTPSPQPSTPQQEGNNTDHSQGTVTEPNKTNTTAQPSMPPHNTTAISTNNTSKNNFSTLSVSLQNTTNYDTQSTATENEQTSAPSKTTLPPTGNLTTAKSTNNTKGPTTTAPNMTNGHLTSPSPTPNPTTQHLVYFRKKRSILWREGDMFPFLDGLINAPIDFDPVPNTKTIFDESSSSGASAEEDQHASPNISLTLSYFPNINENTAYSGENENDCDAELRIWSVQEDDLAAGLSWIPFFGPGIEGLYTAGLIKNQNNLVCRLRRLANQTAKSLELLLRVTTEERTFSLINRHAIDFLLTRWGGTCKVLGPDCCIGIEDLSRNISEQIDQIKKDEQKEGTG


Tests used:
Marburg virus GP (Ravn) [1] = target: T4, Marburg virus GP (Ravn) (Marburg virus, Ravn strain, UniProt Q1PDC7 19-681); experiment: cell-based or functional assay
MARV Angola GPe = target: T1, MARV Angola GPe; experiment: ELISA on coated antigen (FIG. 2)
MARV Musoke GPe = target: T2, MARV Musoke GPe; experiment: ELISA on coated antigen (FIG. 2)
MARV Ci67 GPe = target: T3, MARV Ci67 GPe; experiment: ELISA on coated antigen (FIG. 2)
Marburg virus GP (Ravn) [2] = target: T4, Marburg virus GP (Ravn); experiment: cell-based or functional assay; remark: listed apart in the source

Row | Binder | VSVdG/GP Neutralization (Marburg virus GP (Ravn) [1]) | binding result (MARV Angola GPe) | binding result (MARV Musoke GPe) | binding result (MARV Ci67 GPe) | neutralization of mucin containing (full length) MARV GP-pseudotyped VSV (Marburg virus GP (Ravn) [2])
1 | CAN40G1 (antibody, V domains shown) VH: EVQLQQSGPELVKPGASVKISCRTSGYTFTEYTIHWVKQSRGKSLEWIGGINPNHGGTLYNQKFKVKATLTVDKSSSTAYMELRSLTSEDSAVYYCARFTYDYWGQGTTLTVSS VL: DIVLTQSPASLAVSLGQRASISCKASQSVDHDGDSYMNWYQQKPGQPPKLLIYATSNLESGIPARFSGSGSGTDFTLNIHPVEEEDAATYYCQQSYEVPLTFGAGTKLELK | 0% | binds | binds | binds | 
2 | CAN30G5 (antibody, V domains shown) VH: EVQLVESGGGLVQPKGSLKLSCAASGFAFNSYAMHWVCQAPGKGLEWVARIRIKSGNYATSYAGSVTDRFTVSRDDSQNLFYLQMNNLKTEDTAMYYCVREWEGAMDYWGQGTSVTVSS VL: DIVLTQSPLSLPVSLGDQASISCRSSQSLVHSNGNTYLHWYLQKPGQSPNLLIYKVSNRFSGVPDRFSGSGSGTDFTLKISRVEAEDLGVYFCSQSTHVPWTFGGGTKLEIK | 50% | no binding | no binding | no binding | ~50%
3 | CAN54G2 (antibody, V domains shown) VH: QVQLQQSGTELVRPGTSVKISCKASGYDFTNFWLGWIKQRPGHGLEWIGDIYPGGDNTYYNEKFKGKVTLTADKSSNTAYMQFSSLTSEDSAVYFCFMILYTLDYWGQGTSVTVSS VL: not shown | 40% | no binding | no binding | no binding | ~50%
4 | CAN30G1 (antibody, V domains shown) VH: QIQLVQSGPELKKPGETVKISCKASGYTFTNYGMNWVKQAPGKGLKWMGWINTYTGKPTYVDDFKGRFAFSLETSANTAYLQINNLKNEDTATYFCESGGYDEDYWGQGTTLTVSS VL: ENVLTQSPAIMSASPGEKVTMTCSASSSVTYMHWYQQKSSTSPKLWIYDTSKLASGVPGRFSGSGSGNSYSLTISSMEAEDVATYYCFQGSGYPYTFGGGTKLEIK | 5% | binds | binds | binds | 
5 | CAN30G3 (antibody, V domains shown) VH: QVQLKESGPGLVAPSQSLSITCTVSGFSLTDYGITWIRQPPGKGLEWLGVIWGGGSAYYNLVLKSRLSISKDNSKSQVFLKMNSLQTDDTAMYYCAKHRTLITTAMDYWGQGISVTVSS VL: DVLMTQTPLSLPVSLGDQASISCRSSQNIVHSNGNTYLEWYLQKSGQSPKLLIYKVSNRFSGVPDRFSGSGSGTDFTLKISRVEAEDLGVYYCFQGSHFPWTFGGGTKLEIK | 40% | no binding | no binding | no binding | ~50%
6 | CAN30G4 (antibody, V domains shown) VH: EVKLVESGGGLVKSGGSLKLSCAVSGFTFSTYAMSWVRQIPEKRLEWVATISNGGSYIYYSDSVKGRFTISRDNAKNTLYLQMSSLRSEDTAMYYCARHRESYRYDWFAYWGQGTLVTVSA VL: DVLMTQTPLSLPVSLGDQASISCRSSQNIVHSDGNTYLEWYLQKPGQSPKLLIYKFSNRFSGVPDRFSGSGSGTDFTLKISRVEAEDLGVYYCFQGSHVPPTFGAGTKLELK | 50% | binds | binds | binds | 
